Measurements published in patent US8088387B2, “Method of targeting specific cell populations using cell-binding agent maytansinoid conjugates linked via a non-cleavable linker, said conjugates, and methods of making said conjugates” (Immunogen Inc., priority 2003, dated 2012).

How the values were obtained:
[1] = system: L1210 mouse leukemia system; conditions: cited from earlier work
[2] = human, in vivo; cited from earlier work
[3] = system: human B-16 melanocarcinoma system; conditions: cited from earlier work
[4] = system: Lewis lung carcinoma system; conditions: cited from earlier work
[5] = system: human acute lymphoblastic leukemia line C.E.M.; conditions: cited from earlier work
[6] = system: L1210 murine leukemic cell suspension; conditions: in vitro; cited from earlier work
[7] = system: P388 murine leukemic cell suspension; conditions: in vitro; most sensitive line; cited from earlier work
esterase = esterase cleavage of the C-3 ester; assay type: in vitro ADME
Text: Some linkers can be cleaved by esterases. Again only certain esters can be cleaved by esterases present inside or outside cells. Esters are formed by the condensation of a carboxylic acid and an alcohol. Simple esters are esters produced with simple alcohols, such as aliphatic alcohols, and small cyclic and small aromatic alcohols.

[8] = system: P388 lymphocytic leukemia system; conditions: in vivo; cited from earlier work
L1210 cells = conditions: treatment of L1210 cells in vivo; cited from earlier work
[9] = system: human nasopharyngeal carcinoma cells; conditions: cited from earlier work
[10] = system: LY5178 murine leukemic cell suspension; conditions: in vitro; cited from earlier work
Namalwa cells = assay: cell destroying activity, antigen-negative cells (bystander study); assay type: cell-based
Text: (§1) An additional aspect of conjugates prepared with non-cleavable linkers compared to conjugates that have cleavable disulfide linkers is the absence of activity toward antigen-negative cells when in close proximity to antigen-positive cells, termed here the bystander effect. That is, the conjugates prepared with non-cleavable linkers have minimal bystander activity. […] This minimal bystander activity of the non-cleavable conjugate, as measured in this in vitro assay, may contribute to the increased tolerability of conjugate with non-cleavable linkers observed in acute toxicity studies.

COLO205 cells = assay: cell cycle arrest by flow cytometry; assay type: cell-based, human; conditions: 30 hours post-treatment
Experimental: Maytansinoid conjugates are thought to impart their cell destroying activity through the inhibition of microtubule polymerization. This inhibition of microtubule polymerization leads to an arrest of the cell cycle principally at G2/M. The antigen-dependent arrest of cells at G2/M by antibody-maytansinoid conjugates can be monitored by flow cytometry analysis (FIG. 13). Treatment of COLO205 cells with huC242-SPP-DM1 or huC242-SMCC-DM1 conjugate results in a complete G2/M arrest by 6-10 hours. […] The difference in the durability of the activity of these two conjugates is also reflected in percentage of dead cells at the 30 hour time point, as judged by a dye exclusion assay using trypan blue.

[11] = plasma clearance of conjugates; assay type: in vivo; conditions: plasma, conjugate, FIG. 11
Text: This is in sharp contrast to plasma clearance of conjugates prepared with relatively labile disulfide bonds such as huC242-SPP-DM1. […] The non-cleavable SMCC linkage is therefore much more resistant to maytansinoid-linker cleavage activities present in vivo than the SPP-DM1 conjugate. […] This increased exposure could have substantial impact on drug efficacy in some cases.

[12] = acute toxicity test, single intravenous dose; assay type: in vivo, female CD-1 mice
Experimental: Maytansinoid conjugates prepared with non-cleavable linkers such as SMCC show an unexpected increased tolerability in mice compared with conjugates prepared with cleavable disulfide linkers. An acute toxicity test with a single intravenous dose was carried out in female CD-1 mice. A comparison of the tolerability of a huC242-SMCC-DM1 conjugate (non-cleavable) with huC242 conjugates prepared with linkers containing cleavable disulfide bonds was conducted by monitoring the death of mice (FIGS. 12A and B) and signs of toxicity (FIGS. 12C and D) over a series of four escalating doses of each conjugate. The maximum tolerated dose (MTD) for the SMCC-DM1 conjugate was greater than the highest dose tested (150 mg/kg) while the MTD for the disulfide-linked conjugate SPP-DM1 was in the range of 45-90 mg/kg.

COLO 205 cell line = assay: cell destroying activity, antigen-positive cells (bystander study); assay type: cell-based, human; conditions: COLO 205 cultured separately
Text: as §1

[13] = Pharmacokinetic Studies of huC242-SPP-DM1 and huC242-SCC-DM1 conjugates inCD-1 Mice Plasma clearance curves and Pharmacokinetic parameters
Text: Table printed on a drawing sheet, FIG. 11
Title: Pharmacokinetic Studies of huC242-SPP-DM1 and huC242-SCC-DM1 conjugates inCD-1 Mice Plasma clearance curves and Pharmacokinetic parameters
First reader's note: Rows without -DM1 (huC242-SMCC, huC242-SPP) appear to be the antibody component of the same conjugates, as in the plot legend; study in CD-1 mice.

[14] = in vitro clonogenic / indirect cytotoxicity assays, cell line not given; assay type: cell-based; conditions: for cytotoxicity in clonogenic assays in vitro: FIGS. 9, 22, 28
Text: Cell-binding agent maytansinoid conjugates of the invention can be evaluated for their ability to suppress proliferation of various cell lines in vitro. For example, cell lines such as the human colon carcinoma line COLO205, the human melanoma cell line A375, the human myeloid leukemia cell line HL60, the human breast carcinoma line SKBR3, or the human epidermoid carcinoma cell line KB can be used for the assessment of cytotoxicity of these conjugates. Cells to be evaluated can be exposed to the compounds for 24 hours and the surviving fractions of cells measured in direct assays by known methods. (See, e.g. Goldmacher et al., 135 J. Immunol. 3648-3651 (1985), and Goldmacher et al., 102 J. Cell Biol. 1312-1319 (1986).) IC50 values can then be calculated from the results of the assays.

COLO 205 cells = assay: indirect FACS binding assay on COLO 205 cells; parameters: species or system human; conditions: higher than free huC242 antibody; COLO 205 cells
Experimental: The inventors carried out binding and cytotoxicity studies on the huC242-non-S-containing non-cleavable linker-DM1 conjugate. First, the binding affinities of huC242 antibody, huC242-SMNP-DM3, and huC242-non-S-containing non-cleavable linker-DM1 to COLO 205 cells were compared. 5×10^3 cells per well were used, with a three hour primary incubation on ice. The huC242-non-S-containing non-cleavable linker-DM1 conjugate had about a two-fold higher apparent dissociation constant than free antibody (see FIG. 23).

COc1cc2cc(c1Cl)N(C)C(=O)C[C@H](OC(=O)[C@H](C)N(C)C(C)=O)[C@]1(C)O[C@H]1[C@H](C)[C@@H]1C[C@@](O)(NC(=O)O1)[C@H](OC)/C=C/C=C(\C)C2 [Maytansine]
inhibitory activity in vivo [1]: significant inhibitory activity
clinical outcome / adverse effects [2]: not favorable due to a number of side effects
inhibitory activity in vivo [3]: significant inhibitory activity
inhibitory activity in vivo [4]: significant inhibitory activity
lowest inhibitory concentration [5]: 10^−7 μg/ml
inhibitory doses [6]: 10^−3 to 10^−1 μg/ml
inhibitory doses [7]: 10^−3 to 10^−1 μg/ml
cleavage of the ester at C-3 by esterases (esterase): no esterase that cleaved the ester at C-3
dosage range over which tumor growth was inhibited [8]: 50- to 100 fold
cells accumulating in mitosis (L1210 cells): 67%
inhibition of in vitro growth [9]: active inhibitor
inhibitory doses [10]: 10^−3 to 10^−1 μg/ml

B1: huC242-SPP-DM1: huC242 DM1 conjugate with relatively labile cleavable disulfide linker SPP (conjugate, chains of the INN, looked up)
VH: QVQLVQSGAEVKKPGETVKISCKASDYTFTYYGMNWVKQAPGQGLKWMGWIDTTTGEPTYAQKFQGRIAFSLETSASTAYLQIKSLKSEDTATYFCARRGPYNWYFDVWGQGTTVTVSS
VL: DIVMTQSPLSVPVTPGEPVSISCRSSKSLLHSNGNTYLYWFLQRPGQSPQLLIYRMSNLVSGVPDRFSGSGSGTAFTLRISRVEAEDVGVYYCLQHLEYPFTFGPGTKLELK
modifications: DM1 via SPP disulfide linker
cell destroying activity (Namalwa cells; Namalwa cultured separately): no activity
bystander cell destroying activity toward Namalwa cells (Namalwa cells; co-cultures of COLO 205 and Namalwa cells): dramatic cell destroying activity
durability of cell cycle arrest (COLO205 cells): escape from cell cycle arrest and reinitiate cell division
half-life for clearance [11]: 40 to 50 h
time by which lethal toxicity was observed for all mice ([12]; at 150 mg/kg, post-treatment): ≤ 96 h
survival / lethal toxicity ([12]; at 150 mg/kg, single intravenous dose): lethal toxicity was observed for all mice
maximum tolerated dose (MTD) ([12]; single intravenous dose, female CD-1 mice): 45 to 90 mg/kg
cell destroying activity (COLO 205 cell line): potent cell destroying activity
AUC | [13]: 9205.7 µg·h/mL
CL | [13]: 1.1 mL/h/kg
Cmax | [13]: 191.4 µg/mL
Vss | [13]: 0.0926 L/kg
t1/2 | hour [13]: 49.8 h

B2: huC242-non-S-containing non-cleavable linker-DM1: huC242 conjugated with a maytansinoid active ester forming a non-sulfur-containing non-cleavable linker (conjugate, chains of the INN, looked up)
VH: B1 VH
VL: B1 VL
modifications: DM1 via non-sulfur non-cleavable linker
in vitro cytotoxicity compared with huC242-SMNP-DM3 ([14]; FIG. 22): comparable to huC242-SMNP-DM3
cytotoxicity in clonogenic assays in vitro [14]: potent and antigen-specific cytotoxicity
IC50 ([14]; in vitro cytotoxicity, FIG. 22): 7 pM
apparent dissociation constant relative to free antibody (COLO 205 cells): two

B3: huC242-SIAB-DM1: huC242 conjugate of DM1 synthesized with the non-cleavable linker SIAB (conjugate, chains of the INN, looked up)
VH: B1 VH
VL: B1 VL
modifications: DM1 via SIAB linker
cytotoxicity in clonogenic assays in vitro [14]: potent and antigen-specific cytotoxicity
